Source: IntAct's records for PubMed 31515488

B1: Nebulette (Homo sapiens), O76041 (parent)
chain: MRVPVFEDIKDETEEEKIGEEENEEDQVFYKPVIEDLSMELARKCTELISDIRYKEEFKKSKDKCTFVTDSPMLNHVKNIGAFISEAKYKGTIKADLSNSLYKRMPATIDSVFAGEVTQLQSEVAYKQKHDAAKGFSDYAHMKEPPEVKHAMEVNKHQSNISYRKDVQDTHTYSAELDRPDIKMATQISKIISNAEYKKGQGIMNKEPAVIGRPDFEHAVEASKLSSQIKYKEKFDNEMKDKKHHYNPLESASFRQNQLAATLASNVKYKKDIQNMHDPVSDLPNLLFLDHVLKASKMLSGREYKKLFEENKGMYHFDADAVEHLHHKGNAVLQSQVKYKEEYEKNKGKPMLEFVETPSYQASKEAQKMQSEKVYKEDFEKEIKGRSSLDLDKTPEFLHVKYITNLLREKEYKKDLENEIKGKGMELNSEVLDIQRAKRASEMASEKEYKKDLESIIKGKGMQAGTDTLEMQHAKKAAEIASEKDYKRDLETEIKGKGMQVSTDTLDVQRAKKASEMASQKQYKKDLENEIKGKGMQVSMDIPDILRAKRTSEIYSQRKYKDEAEKMLSNYSTIADTPEIQRIKTTQQNISAVFYKKEVGAGTAVKDSPEIERVKKNQQNISSVKYKEEIKHATAISDPPELKRVKENQKNISNLQYKEQNYKATPVSMTPEIERVRRNQEQLSAVKYKGELQRGTAISDPPELKRAKENQKNISNVYYRGQLGRATTLSVTPEMERVKKNQENISSVKYTQDHKQMKGRPSLILDTPAMRHVKEAQNHISMVKYHEDFEKTKGRGFTPVVDDPVTERVRKNTQVVSDAAYKGVHPHIVEMDRRPGIIVDLKVWRTDPGSIFDLDPLEDNIQSRSLHMLSEKASHYRRHWSRSHSSSTFGTGLGDDRSEISEIYPSFSCCSEVTRPSDEGAPVLPGAYQQSHSQGYGYMHQTSVSSMRSMQHSPNLRTYRAMYDYSAQDEDEVSFRDGDYIVNVQPIDDGWMYGTVQRTGRTGMLPANYIEFVN
B2: Baculoviral IAP repeat-containing protein 7 (Homo sapiens), Q96CA5-1 (parent)
chain: MGPKDSAKCLHRGPQPSHWAAGDGPTQERCGPRSLGSPVLGLDTCRAWDHVDGQILGQLRPLTEEEEEEGAGATLSRGPAFPGMGSEELRLASFYDWPLTAEVPPELLAAAGFFHTGHQDKVRCFFCYGGLQSWKRGDDPWTEHAKWFPSCQFLLRSKGRDFVHSVQETHSQLLGSWDPWEEPEDAAPVAPSVPASGYPELPTPRREVQSESAQEPGGVSPAEAQRAWWVLEPPGARDVEAQLRRLQEERTCKVCLDRAVSIVFVPCGHLVCAECAPGLQLCPICRAPVRSRVRTFLS

Variants of: B1
Conditions: with traf2_human TRAF2, Q12933
Chain of traf2_human TRAF2, Q12933 (Q12933 whole entry): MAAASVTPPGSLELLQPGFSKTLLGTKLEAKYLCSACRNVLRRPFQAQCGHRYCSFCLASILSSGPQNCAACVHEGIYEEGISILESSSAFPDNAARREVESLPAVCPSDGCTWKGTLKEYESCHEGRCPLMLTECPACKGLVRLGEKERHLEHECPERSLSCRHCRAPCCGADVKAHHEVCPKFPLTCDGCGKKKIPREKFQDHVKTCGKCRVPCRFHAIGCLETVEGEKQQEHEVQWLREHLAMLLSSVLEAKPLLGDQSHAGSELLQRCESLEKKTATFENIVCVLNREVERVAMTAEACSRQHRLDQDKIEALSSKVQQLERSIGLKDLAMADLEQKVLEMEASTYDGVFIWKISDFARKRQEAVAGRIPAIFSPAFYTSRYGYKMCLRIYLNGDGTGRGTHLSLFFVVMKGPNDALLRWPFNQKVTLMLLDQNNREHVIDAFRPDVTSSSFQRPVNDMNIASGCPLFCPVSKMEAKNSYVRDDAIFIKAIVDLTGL

Variant	effect of a mutation on the interaction
M351V	with no effect
R613Q	with no effect

Variants of: B1
Conditions: with cc136_human CCDC136, Q96JN2
Chain of cc136_human CCDC136, Q96JN2 (Q96JN2 whole entry): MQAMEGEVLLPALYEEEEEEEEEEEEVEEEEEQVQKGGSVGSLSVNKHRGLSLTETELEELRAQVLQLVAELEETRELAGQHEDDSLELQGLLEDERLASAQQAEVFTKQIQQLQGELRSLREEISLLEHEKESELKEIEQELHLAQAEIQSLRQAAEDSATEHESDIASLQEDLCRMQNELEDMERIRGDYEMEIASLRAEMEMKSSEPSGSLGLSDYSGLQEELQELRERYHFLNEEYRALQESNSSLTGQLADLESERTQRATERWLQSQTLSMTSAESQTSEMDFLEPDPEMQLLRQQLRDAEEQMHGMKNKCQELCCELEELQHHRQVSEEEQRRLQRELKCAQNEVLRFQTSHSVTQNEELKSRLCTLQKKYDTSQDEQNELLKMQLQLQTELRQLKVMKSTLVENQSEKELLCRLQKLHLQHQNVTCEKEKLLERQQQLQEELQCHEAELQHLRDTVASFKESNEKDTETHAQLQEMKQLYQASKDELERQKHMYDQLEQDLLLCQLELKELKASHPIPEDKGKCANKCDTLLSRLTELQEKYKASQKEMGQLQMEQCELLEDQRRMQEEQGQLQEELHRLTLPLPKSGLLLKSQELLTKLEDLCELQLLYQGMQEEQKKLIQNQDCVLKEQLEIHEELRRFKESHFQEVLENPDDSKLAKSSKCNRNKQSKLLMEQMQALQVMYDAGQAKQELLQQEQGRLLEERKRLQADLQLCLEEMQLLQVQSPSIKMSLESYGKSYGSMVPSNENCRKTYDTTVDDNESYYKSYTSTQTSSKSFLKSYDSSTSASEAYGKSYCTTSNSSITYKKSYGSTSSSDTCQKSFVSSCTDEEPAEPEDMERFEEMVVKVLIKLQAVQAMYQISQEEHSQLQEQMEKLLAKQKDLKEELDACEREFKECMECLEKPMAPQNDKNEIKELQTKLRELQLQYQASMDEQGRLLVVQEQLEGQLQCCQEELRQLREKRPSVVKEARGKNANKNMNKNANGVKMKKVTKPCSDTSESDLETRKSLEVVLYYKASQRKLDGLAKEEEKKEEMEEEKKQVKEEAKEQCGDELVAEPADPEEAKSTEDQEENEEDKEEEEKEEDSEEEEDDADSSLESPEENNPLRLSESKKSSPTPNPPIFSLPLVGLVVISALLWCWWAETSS

Variant	effect of a mutation on the interaction
M351V	with no effect
R613Q	with no effect

Variants of: B1
Conditions: with traf1_human TRAF1, Q13077
Chain of traf1_human TRAF1, Q13077 (Q13077 whole entry): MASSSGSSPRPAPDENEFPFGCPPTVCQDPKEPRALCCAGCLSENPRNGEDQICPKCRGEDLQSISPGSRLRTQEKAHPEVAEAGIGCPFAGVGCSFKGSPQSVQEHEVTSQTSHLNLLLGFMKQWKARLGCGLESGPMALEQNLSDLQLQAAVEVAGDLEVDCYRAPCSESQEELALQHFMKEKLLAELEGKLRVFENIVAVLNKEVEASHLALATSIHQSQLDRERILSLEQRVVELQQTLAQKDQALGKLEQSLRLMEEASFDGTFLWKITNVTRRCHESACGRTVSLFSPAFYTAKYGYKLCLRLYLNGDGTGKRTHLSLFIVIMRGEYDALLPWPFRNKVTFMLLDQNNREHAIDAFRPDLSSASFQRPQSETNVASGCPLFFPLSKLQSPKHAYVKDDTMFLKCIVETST

Variant	effect of a mutation on the interaction
M351V	with no effect
R613Q	with no effect

Variants of: B2
Conditions: with phf1_human PHF1, O43189
Chain of phf1_human PHF1, O43189 (O43189 whole entry): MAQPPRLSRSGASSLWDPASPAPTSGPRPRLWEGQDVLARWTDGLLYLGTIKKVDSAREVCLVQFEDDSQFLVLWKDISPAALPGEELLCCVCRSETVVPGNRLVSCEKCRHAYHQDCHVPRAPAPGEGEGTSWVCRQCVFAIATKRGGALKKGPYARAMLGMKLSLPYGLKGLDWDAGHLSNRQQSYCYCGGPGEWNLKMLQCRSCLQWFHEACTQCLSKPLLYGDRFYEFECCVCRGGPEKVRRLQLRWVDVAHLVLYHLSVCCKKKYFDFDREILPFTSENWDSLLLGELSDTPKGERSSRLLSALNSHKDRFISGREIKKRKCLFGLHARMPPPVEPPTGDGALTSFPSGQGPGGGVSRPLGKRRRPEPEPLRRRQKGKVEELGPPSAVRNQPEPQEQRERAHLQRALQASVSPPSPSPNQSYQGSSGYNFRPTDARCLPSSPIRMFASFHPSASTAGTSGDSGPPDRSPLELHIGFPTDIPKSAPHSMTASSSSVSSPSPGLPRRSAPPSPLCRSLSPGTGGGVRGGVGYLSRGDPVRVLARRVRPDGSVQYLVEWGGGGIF

Variant	effect of a mutation on the interaction
H164R	with no effect

Variants of: B2
Conditions: with ddx6_human DDX6, P26196
Chain of ddx6_human DDX6, P26196 (P26196 whole entry): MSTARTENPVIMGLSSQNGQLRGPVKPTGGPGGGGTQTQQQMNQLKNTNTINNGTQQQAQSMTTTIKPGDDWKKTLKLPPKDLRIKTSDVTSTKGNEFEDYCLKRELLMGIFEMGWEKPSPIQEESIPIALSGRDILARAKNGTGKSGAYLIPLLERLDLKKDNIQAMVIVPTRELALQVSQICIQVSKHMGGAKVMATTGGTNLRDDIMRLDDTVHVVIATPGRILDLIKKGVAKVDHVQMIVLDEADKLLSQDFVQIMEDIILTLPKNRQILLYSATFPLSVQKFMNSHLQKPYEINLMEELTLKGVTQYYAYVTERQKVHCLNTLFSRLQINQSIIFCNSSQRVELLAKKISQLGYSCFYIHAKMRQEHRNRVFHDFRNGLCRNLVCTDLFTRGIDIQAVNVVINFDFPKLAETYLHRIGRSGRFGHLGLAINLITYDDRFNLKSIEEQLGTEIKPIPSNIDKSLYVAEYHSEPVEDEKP

Variant	effect of a mutation on the interaction
H164R	with no effect

Variants of: B2
Conditions: with birc2_human BIRC2, Q13490
Chain of birc2_human BIRC2, Q13490 (Q13490 whole entry): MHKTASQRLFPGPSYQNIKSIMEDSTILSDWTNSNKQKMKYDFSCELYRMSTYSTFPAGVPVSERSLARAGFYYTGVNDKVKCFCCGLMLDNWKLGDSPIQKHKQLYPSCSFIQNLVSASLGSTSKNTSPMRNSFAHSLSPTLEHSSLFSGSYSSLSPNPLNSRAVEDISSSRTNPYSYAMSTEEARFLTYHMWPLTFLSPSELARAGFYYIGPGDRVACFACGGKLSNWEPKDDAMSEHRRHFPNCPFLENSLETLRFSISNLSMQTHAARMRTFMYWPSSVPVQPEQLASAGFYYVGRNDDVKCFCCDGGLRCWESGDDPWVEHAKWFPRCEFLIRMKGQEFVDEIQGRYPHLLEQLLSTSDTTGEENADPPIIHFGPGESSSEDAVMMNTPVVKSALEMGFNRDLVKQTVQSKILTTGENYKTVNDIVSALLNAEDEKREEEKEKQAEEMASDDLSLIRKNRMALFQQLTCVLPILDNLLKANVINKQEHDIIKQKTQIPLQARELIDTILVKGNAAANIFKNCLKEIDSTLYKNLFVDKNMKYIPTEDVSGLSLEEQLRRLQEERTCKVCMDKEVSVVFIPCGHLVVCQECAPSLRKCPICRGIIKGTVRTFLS

Variant	effect of a mutation on the interaction
H164R	with no effect

Variants of: B2
Conditions: with ddx6_human DDX6, P26196
Remark: another data set of the same source

Variant	effect of a mutation on the interaction
H164R	with no effect

Variants of: B2
Conditions: with casp9_human CASP9, P55211
Chain of casp9_human CASP9, P55211 (P55211 whole entry): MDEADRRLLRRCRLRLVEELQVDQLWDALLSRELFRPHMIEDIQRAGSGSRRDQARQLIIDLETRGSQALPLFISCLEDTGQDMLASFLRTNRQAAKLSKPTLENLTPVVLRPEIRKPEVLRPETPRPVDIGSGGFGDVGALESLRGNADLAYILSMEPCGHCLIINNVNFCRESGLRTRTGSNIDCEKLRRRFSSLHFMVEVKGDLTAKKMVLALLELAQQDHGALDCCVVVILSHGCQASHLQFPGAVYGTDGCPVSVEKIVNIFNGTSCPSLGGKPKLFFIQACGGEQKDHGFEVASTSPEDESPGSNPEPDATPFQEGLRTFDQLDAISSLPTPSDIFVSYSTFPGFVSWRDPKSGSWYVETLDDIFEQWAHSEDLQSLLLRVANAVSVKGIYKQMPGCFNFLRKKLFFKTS

Variant	effect of a mutation on the interaction
H164R	with no effect

Variants of: B2
Conditions: with birc2_human BIRC2, Q13490
Remark: another data set of the same source

Variant	effect of a mutation on the interaction
H164R	with no effect

Variants of: B2
Conditions: with phf1_human PHF1, O43189
Remark: another data set of the same source

Variant	effect of a mutation on the interaction
H164R	with no effect

Variants of: B2
Conditions: with casp9_human CASP9, P55211
Remark: another data set of the same source

Variant	effect of a mutation on the interaction
H164R	with no effect
